Measurements published in IntAct's records for PubMed 32296183.

B1: Catenin alpha-3 (Homo sapiens), Q9UI47-2 (parent)
chain: MSAETPITLNIDPQDLQVQTFTVEKLLEPLIIQVTTLVNCPQNPSSRKKGRSKRASVLLASVEEATWNLLDKGEKIAQEATVLKDELTASLEEVRKESEALKVSAERFTDDPCFLPKREAVVQAARALLAAVTRLLILADMIDVMCLLQHVSAFQRTFESLKNVANKSDLQKTYQKLGKELENLDYLAFKRQQDLKSPNQRDEIAGARASLKENSPLLHSICSACLEHSDVASLKASKDTVCEEIQNALNVISNASQGIQNMTTPPEPQAATLGSALDELENLIVLNPLTVTEEEIRPSLEKRLEAIISGAALLADSSCTRDLHRERIIAECNAIRQALQDLLSEYMNNAGKKERSNTLNIALDNMCKKTRDLRRQLRKAIIDHVSDSFLDTTVPLLVLIEAAKNGREKEIKEYAAIFHEHTSRLVEVANLACSMSTNEDGIKIVKIAANHLETLCPQIINAALALAARPKSQAVKNTMEMYKRTWENHIHVLTEAVDDITSIDDFLAVSGMFLFF
partner: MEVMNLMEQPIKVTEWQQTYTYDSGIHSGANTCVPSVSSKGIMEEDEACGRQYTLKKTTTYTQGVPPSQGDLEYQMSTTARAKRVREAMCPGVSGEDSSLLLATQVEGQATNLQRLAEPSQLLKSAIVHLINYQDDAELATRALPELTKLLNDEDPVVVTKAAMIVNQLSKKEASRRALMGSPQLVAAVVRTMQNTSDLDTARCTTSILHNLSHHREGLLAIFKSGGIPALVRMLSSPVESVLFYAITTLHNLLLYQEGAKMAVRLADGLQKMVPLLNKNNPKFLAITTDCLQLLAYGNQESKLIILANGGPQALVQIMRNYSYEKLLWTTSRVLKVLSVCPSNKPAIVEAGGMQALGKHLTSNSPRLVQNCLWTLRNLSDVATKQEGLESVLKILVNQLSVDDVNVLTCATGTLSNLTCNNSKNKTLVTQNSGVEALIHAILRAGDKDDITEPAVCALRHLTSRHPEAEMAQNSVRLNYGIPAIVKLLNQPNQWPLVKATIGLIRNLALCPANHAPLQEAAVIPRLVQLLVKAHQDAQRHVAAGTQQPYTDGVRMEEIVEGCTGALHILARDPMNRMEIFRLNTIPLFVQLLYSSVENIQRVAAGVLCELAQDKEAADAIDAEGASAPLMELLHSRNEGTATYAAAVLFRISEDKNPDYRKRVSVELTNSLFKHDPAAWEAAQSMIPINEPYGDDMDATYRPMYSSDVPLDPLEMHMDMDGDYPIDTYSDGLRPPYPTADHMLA
B2: Succinate--CoA ligase [ADP-forming] subunit beta, mitochondrial (Homo sapiens), Q9P2R7 (parent)
chain: MAASMFYGRLVAVATLRNHRPRTAQRAAAQVLGSSGLFNNHGLQVQQQQQRNLSLHEYMSMELLQEAGVSVPKGYVAKSPDEAYAIAKKLGSKDVVIKAQVLAGGRGKGTFESGLKGGVKIVFSPEEAKAVSSQMIGKKLFTKQTGEKGRICNQVLVCERKYPRREYYFAITMERSFQGPVLIGSSHGGVNIEDVAAESPEAIIKEPIDIEEGIKKEQALQLAQKMGFPPNIVESAAENMVKLYSLFLKYDATMIEINPMVEDSDGAVLCMDAKINFDSNSAYRQKKIFDLQDWTQEDERDKDAAKANLNYIGLDGNIGCLVNGAGLAMATMDIIKLHGGTPANFLDVGGGATVHQVTEAFKLITSDKKVLAILVNIFGGIMRCDVIAQGIVMAVKDLEIKIPVVVRLQGTRVDDAKALIADSGLKILACDDLDEAARMVVKLSEIVTLAKQAHVDVKFQLPI
partner: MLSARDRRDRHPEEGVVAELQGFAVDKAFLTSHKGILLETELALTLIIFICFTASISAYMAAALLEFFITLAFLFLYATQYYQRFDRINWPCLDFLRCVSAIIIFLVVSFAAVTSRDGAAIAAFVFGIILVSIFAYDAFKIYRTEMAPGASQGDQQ
B3: Catenin alpha-3 (Homo sapiens), Q9UI47-2 (parent)
chain: B1 chain
partner: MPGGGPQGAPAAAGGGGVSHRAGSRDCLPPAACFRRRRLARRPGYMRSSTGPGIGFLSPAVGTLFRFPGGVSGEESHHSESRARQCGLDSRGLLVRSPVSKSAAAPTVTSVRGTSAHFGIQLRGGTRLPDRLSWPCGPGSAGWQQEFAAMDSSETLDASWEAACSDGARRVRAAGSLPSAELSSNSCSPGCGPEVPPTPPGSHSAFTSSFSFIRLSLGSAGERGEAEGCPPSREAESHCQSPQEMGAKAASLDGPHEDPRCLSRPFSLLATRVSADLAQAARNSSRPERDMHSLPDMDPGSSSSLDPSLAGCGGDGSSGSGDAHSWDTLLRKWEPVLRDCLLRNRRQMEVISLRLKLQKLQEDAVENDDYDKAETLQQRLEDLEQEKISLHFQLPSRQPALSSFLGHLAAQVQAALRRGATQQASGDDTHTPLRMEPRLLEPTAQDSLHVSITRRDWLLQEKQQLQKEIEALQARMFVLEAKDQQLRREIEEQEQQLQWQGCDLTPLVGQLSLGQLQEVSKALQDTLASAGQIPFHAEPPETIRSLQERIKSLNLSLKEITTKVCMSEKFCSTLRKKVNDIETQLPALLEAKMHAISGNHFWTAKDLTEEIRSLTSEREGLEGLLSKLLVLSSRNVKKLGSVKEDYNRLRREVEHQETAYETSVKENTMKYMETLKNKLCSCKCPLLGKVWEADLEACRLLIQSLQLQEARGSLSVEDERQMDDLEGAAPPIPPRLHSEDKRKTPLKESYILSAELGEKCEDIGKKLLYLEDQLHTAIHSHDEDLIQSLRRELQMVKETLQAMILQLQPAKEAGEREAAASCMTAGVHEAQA
B4: Golgi SNAP receptor complex member 2 (Homo sapiens), O14653 (parent)
chain: MDPLFQQTHKQVHEIQSCMGRLETADKQSVHIVENEIQASIDQIFSRLERLEILSSKEPPNKRQNARLRVDQLKYDVQHLQTALRNFQHRRHAREQQERQREELLSRTFTTNDSDTTIPMDESLQFNSSLQKVHNGMDDLILDGHNILDGLRTQRLTLKGTQKKILDIANMLGLSNTVMRLIEKRAFQDKYFMIGGMLLTCVVMFLVVQYLT
partner: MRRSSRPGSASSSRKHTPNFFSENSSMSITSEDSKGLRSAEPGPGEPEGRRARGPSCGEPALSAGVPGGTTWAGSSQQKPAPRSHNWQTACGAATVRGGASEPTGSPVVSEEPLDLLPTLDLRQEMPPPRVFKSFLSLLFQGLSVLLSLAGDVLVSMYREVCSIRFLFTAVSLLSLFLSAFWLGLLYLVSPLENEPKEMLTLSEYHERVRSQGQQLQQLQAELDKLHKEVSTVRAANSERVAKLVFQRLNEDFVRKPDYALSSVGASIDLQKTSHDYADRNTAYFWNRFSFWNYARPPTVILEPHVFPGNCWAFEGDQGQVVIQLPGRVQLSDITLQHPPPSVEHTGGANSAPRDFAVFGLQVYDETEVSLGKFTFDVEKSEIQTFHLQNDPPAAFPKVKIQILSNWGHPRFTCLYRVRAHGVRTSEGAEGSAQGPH
B5: Catenin alpha-3 (Homo sapiens), Q9UI47-2 (parent)
chain: B1 chain
partner: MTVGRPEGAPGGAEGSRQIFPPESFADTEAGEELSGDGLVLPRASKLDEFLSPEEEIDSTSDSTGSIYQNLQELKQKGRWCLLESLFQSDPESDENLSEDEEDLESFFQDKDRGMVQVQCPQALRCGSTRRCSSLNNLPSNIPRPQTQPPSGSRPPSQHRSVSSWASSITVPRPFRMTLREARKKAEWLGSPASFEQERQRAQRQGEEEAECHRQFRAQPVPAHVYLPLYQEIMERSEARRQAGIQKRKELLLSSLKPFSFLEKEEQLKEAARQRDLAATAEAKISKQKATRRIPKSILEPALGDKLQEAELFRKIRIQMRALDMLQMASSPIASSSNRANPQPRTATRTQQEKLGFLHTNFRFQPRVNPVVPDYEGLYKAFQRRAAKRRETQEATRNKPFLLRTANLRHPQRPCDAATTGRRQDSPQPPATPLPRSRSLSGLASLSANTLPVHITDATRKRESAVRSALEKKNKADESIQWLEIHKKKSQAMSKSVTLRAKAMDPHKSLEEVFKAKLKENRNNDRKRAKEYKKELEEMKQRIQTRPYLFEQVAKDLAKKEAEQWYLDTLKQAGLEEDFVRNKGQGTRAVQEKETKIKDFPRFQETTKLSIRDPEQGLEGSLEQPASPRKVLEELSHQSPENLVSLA
B6: Golgi SNAP receptor complex member 2 (Homo sapiens), O14653 (parent)
chain: B4 chain
partner: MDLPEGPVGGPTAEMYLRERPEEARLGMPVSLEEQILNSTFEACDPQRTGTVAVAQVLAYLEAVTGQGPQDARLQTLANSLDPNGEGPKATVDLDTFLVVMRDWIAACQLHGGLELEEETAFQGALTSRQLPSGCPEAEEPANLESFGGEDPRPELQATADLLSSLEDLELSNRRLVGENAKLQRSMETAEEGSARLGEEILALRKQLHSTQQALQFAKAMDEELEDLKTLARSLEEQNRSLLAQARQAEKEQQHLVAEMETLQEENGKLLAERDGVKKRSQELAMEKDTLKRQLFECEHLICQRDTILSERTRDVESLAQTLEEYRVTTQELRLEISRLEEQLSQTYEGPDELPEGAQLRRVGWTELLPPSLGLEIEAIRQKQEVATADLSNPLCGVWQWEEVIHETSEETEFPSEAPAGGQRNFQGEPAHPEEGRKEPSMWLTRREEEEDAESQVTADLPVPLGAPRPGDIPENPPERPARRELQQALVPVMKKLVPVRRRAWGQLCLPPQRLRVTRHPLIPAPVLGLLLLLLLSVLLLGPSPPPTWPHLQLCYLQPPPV
B7: Golgi SNAP receptor complex member 2 (Homo sapiens), O14653 (parent)
chain: B4 chain
partner: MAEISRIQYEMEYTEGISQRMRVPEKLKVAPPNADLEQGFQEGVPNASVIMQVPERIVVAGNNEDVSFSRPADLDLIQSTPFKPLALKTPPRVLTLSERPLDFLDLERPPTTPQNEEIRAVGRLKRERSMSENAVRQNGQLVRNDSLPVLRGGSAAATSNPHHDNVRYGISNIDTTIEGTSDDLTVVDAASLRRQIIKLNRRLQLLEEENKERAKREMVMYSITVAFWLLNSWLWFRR
B8: Ceroid-lipofuscinosis neuronal protein 6 (Homo sapiens), Q9NWW5 (parent)
chain: MEATRRRQHLGATGGPGAQLGASFLQARHGSVSADEAARTAPFHLDLWFYFTLQNWVLDFGRPIAMLVFPLEWFPLNKPSVGDYFHMAYNVITPFLLLKLIERSPRTLPRSITYVSIIIFIMGASIHLVGDSVNHRLLFSGYQHHLSVRENPIIKNLKPETLIDSFELLYYYDEYLGHCMWYIPFFLILFMYFSGCFTASKAESLIPGPALLLVAPSGLYYWYLVTEGQIFILFIFTFFAMLALVLHQKRKRLFLDSNGLFLFSSFALTLLLVALWVAWLWNDPVLRKKYPGVIYVPEPWAFYTLHVSSRH

Variants of: B1
Details: with plak_human JUP

Variant | effect of a mutation on the interaction
V94D | disrupting interaction strength

Variants of: B2
Details: with CMTM5, Q96DZ9-2

Variant | effect of a mutation on the interaction
G118R | disrupting interaction strength
D251N | disrupting interaction strength

Variants of: B3
Details: with DISC1, Q9NRI5-2

Variant | effect of a mutation on the interaction
V94D | disrupting interaction strength

Variants of: B4
Details: with spag4_human SPAG4, Q9NPE6

Variant | effect of a mutation on the interaction
G144W | with no effect

Variants of: B5
Details: with FAM161B

Variant | effect of a mutation on the interaction
V94D | with no effect

Variants of: B6
Details: with kash5_human KASH5, Q8N6L0

Variant | effect of a mutation on the interaction
G144W | with no effect

Variants of: B7
Details: with MFF

Variant | effect of a mutation on the interaction
G144W | disrupting interaction strength

Variants of: B8
Details: with stx1a_human STX1A

Variant | effect of a mutation on the interaction
R6T | with no effect
L47F | with no effect

Variants of: B8
Details: with ar13b_human ARL13B

Variant | effect of a mutation on the interaction
R6T | with no effect
L47F | with no effect

Variants of: B8
Details: with cxa8_human GJA8, P48165
cxa8_human GJA8, P48165, sequence (P48165 whole entry): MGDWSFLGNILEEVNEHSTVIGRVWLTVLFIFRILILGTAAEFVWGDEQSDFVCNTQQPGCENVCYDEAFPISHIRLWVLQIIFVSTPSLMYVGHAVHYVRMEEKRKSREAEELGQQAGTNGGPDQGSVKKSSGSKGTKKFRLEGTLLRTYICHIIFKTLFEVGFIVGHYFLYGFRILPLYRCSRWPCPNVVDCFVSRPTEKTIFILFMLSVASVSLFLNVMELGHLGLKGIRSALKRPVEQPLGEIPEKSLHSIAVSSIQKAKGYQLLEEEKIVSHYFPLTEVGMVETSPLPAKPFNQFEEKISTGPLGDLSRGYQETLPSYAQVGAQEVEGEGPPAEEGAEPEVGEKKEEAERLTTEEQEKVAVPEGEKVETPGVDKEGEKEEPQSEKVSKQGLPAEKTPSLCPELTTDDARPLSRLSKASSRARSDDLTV

Variant | effect of a mutation on the interaction
R6T | with no effect

Variants of: B8
Details: with cd79a_human CD79A

Variant | effect of a mutation on the interaction
R6T | with no effect
L47F | with no effect

Variants of: B8
Details: with ki2l3_human KIR2DL3, P43628
ki2l3_human KIR2DL3, P43628, sequence (P43628 whole entry): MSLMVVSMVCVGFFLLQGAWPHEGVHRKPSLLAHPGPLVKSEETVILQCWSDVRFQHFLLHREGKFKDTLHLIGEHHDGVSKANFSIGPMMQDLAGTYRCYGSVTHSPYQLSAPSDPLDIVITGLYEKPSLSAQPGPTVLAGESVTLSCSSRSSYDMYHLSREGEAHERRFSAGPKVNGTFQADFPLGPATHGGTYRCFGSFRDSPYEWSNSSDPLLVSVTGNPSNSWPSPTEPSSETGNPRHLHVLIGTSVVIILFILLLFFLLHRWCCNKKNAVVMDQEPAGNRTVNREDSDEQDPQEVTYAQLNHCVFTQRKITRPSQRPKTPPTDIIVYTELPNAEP

Variant | effect of a mutation on the interaction
R6T | with no effect
L47F | with no effect

Variants of: B8
Details: with lrc25_human LRRC25, Q8N386
lrc25_human LRRC25, Q8N386, sequence (Q8N386 whole entry): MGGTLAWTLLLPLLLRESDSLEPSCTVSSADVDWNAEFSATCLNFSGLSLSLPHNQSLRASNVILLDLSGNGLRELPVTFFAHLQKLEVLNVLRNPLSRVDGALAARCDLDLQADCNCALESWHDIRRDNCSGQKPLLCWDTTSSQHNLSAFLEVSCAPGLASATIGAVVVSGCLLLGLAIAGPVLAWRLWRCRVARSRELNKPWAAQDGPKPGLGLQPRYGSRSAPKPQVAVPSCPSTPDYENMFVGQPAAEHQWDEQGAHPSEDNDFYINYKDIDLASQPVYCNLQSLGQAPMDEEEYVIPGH

Variant | effect of a mutation on the interaction
R6T | with no effect
L47F | with no effect

Variants of: B8
Details: with tm139_human TMEM139, Q8IV31
tm139_human TMEM139, Q8IV31, sequence (Q8IV31 whole entry): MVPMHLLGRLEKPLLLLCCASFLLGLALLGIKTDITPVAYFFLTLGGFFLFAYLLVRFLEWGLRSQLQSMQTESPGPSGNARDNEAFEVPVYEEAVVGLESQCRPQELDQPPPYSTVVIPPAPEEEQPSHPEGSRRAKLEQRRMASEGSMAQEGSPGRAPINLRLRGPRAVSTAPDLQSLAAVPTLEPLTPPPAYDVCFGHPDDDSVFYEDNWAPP

Variant | effect of a mutation on the interaction
R6T | with no effect
L47F | with no effect
